# Measurements reported in IntAct's records for PubMed 21224891.
# B1: X-linked retinitis pigmentosa GTPase regulator-interacting protein 1 (Homo sapiens), Q96KN7 (parent)
# chain: MSHLVDPTSGDLPVRDIDAIPLVLPASKGKNMKTQPPLSRMNREELEDSFFRLREDHMLVKELSWKQQDEIKRLRTTLLRLTAAGRDLRVAEEAAPLSETARRGQKAGWRQRLSMHQRPQMHRLQGHFHCVGPASPRRAQPRVQVGHRQLHTAGAPVPEKPKRGPRDRLSYTAPPSFKEHATNENRGEVASKPSELVSGSNSIISFSSVISMAKPIGLCMPNSAHIMASNTMQVEEPPKSPEKMWPKDENFEQRSSLECAQKAAELRASIKEKVELIRLKKLLHERNASLVMTKAQLTEVQEAYETLLQKNQGILSAAHEALLKQVNELRAELKEESKKAVSLKSQLEDVSILQMTLKEFQERVEDLEKERKLLNDNYDKLLESMLDSSDSSSQPHWSNELIAEQLQQQVSQLQDQLDAELEDKRKVLLELSREKAQNEDLKLEVTNILQKHKQEVELLQNAATISQPPDRQSEPATHPAVLQENTQIEPSEPKNQEEKKLSQVLNELQVSHAETTLELEKTRDMLILQRKINVCYQEELEAMMTKADNDNRDHKEKLERLTRLLDLKNNRIKQLEGILRSHDLPTSEQLKDVAYGTRPLSLCLETLPAHGDEDKVDISLLHQGENLFELHIHQAFLTSAALAQAGDTQPTTFCTYSFYDFETHCTPLSVGPQPLYDFTSQYVMETDSLFLHYLQEASARLDIHQAMASEHSTLAAGWICFDRVLETVEKVHGLATLIGAGGEEFGVLEYWMRLRFPIKPSLQACNKRKKAQVYLSTDVLGGRKAQEEEFRSESWEPQNELWIEITKCCGLRSRWLGTQPSPYAVYRFFTFSDHDTAIIPASNNPYFRDQARFPVLVTSDLDHYLRREALSIHVFDDEDLEPGSYLGRARVPLLPLAKNESIKGDFNLTDPAEKPNGSIQVQLDWKFPYIPPESFLKPEAQTKGKDTKDSSKISSEEEKASFPSQDQMASPEVPIEAGQYRSKRKPPHGGERKEKEHQVVSYSRRKHGKRIGVQGKNRMEYLSLNILNGNTPEQVNYTEWKFSETNSFIGDGFKNQHEEEEMTLSHSALKQKEPLHPVNDKESSEQGSEVSEAQTTDSDDVIVPPMSQKYPKADSEKMCIEIVSLAFYPEAEVMSDENIKQVYVEYKFYDLPLSETETPVSLRKPRAGEEIHFHFSKVIDLDPQEQQGRRRFLFDMLNGQDPDQGHLKFTVVSDPLDEEKKECEEVGYAYLQLWQILESGRDILEQELDIVSPEDLATPIGRLKVSLQAAAVLHAIYKEMTEDLFS
# partner: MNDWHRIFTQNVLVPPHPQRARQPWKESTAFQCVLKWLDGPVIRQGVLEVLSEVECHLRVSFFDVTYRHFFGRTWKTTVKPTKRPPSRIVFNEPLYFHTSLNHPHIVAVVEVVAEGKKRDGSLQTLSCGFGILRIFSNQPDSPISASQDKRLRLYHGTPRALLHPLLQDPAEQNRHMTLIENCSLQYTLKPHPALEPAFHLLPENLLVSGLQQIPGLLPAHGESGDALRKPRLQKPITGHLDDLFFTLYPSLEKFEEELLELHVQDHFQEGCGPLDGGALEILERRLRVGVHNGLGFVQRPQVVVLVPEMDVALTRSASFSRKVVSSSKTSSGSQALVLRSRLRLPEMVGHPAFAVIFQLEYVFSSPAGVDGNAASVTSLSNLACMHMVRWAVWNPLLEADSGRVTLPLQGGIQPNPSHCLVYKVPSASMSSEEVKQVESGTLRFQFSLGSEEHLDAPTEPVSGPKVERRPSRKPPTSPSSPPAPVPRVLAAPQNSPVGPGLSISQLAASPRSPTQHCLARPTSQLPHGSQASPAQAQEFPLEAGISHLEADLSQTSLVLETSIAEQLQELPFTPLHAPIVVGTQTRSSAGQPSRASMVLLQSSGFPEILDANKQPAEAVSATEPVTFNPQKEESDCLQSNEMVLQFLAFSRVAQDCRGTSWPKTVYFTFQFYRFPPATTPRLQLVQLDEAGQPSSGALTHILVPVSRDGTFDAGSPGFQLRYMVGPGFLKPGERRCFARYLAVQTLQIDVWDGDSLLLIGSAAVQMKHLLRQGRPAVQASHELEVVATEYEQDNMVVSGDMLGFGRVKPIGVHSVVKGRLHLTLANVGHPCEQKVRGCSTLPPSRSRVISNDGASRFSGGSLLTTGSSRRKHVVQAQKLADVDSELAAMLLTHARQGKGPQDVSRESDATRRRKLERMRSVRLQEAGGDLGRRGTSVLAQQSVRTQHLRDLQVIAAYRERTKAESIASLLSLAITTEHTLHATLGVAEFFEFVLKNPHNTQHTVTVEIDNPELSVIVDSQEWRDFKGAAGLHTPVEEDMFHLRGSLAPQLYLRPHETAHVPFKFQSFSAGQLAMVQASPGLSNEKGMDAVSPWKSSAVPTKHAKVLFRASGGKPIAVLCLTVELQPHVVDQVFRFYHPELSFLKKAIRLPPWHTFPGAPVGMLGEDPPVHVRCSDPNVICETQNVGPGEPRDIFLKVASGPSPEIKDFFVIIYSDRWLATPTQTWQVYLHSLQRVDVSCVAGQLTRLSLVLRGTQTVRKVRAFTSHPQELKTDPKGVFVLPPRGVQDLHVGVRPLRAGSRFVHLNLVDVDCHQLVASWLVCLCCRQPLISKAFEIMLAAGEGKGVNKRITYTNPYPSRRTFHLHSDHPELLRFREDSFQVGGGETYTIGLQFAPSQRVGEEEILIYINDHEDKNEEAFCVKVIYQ
# Variants of: B1
# Conditions: with nphp4_human NPHP4, O75161
row,effect of a mutation on the interaction,Variant
1,decreasing interaction strength,A837G
2,with no effect,Q589H
3,decreasing interaction strength,T806I
4,decreasing interaction strength,I838V
5,decreasing interaction strength,A635G
6,decreasing interaction strength,R598Q
7,with no effect,A764V
8,increasing interaction strength,R812H

# Variants of: B1
# Conditions: with nphp4_human NPHP4, O75161
# Remark: another data set of the same source
row,effect of a mutation on the interaction,Variant
1,disrupting interaction strength,R598Q
